Source: the DeepSol protein solubility set

Test: soluble on expression in E. coli; label from the status in PepcDB or PDB records
In the case of “SMIPEVQKPLHEQLWYHGAIPRAEVAELLVHSGDFLVRESQGKQEYVLSVLWDGLPRHFIIQSLDNLYRLEGEGFPSIPLLIDHLLSTQQPLTKKSGVVLHRAVPKDKWVLNHEDLVLGEQIGRGNFGEVFSGRLRADNTLVAVKSCRETLPPDLKAKFLQEARILKQYSHPNIVRLIGVCTQKQPIYIVMELVQGGDFLTFLRTEGARLRVKTLLQMVGDAAAGMEYLESKCCIHRDLAARNCLVTEKNVLKISDFGMSREEADGVYAASGGLRQVPVKWTAPEALNYGRYSSESDVWSFGILLWETFSLGASPYPNLSNQQTREFVEKGGRLPCPELCPDAVFRLMEQCWAYEPGQRPSFSTIYQELQSIRKRHR”, the “soluble on expression in E. coli” value is reported as “soluble”.
With “SMITIKFDLNRYSCSWGAGGAFGGNRGLRPIPPEKGIFPLDHLHECDAEKKEYLGCLKSSAHKSEQCRHLSKKYLQCRMAKNLMAKQDMAELGFSGVKELDSTEDKNTESIEH” the “soluble on expression in E. coli” value was “soluble”.
In the case of “SMPAYACQRPSPLTHHNTLLSEALETLAEAAGFEANEGRLLSFSRAASVLKSLPCPVASLSQLHGLPYFGEHSTRVIQELLEHGTCEEVKQVRCSERYQTMKLFTQVFGVGVKTANRWYQEGLRTLDELREQPQRLTQQQKAGLQYYQDLSTPVRRADAEALQQLIEAAVRQTLPGATVTLTGGFRRGKLQGHDVDFLITHPEEGQEVGLLPKVMSCLQSQGLVLYHQYHRSHLADSAHNLRQRSSTMDVFERSFCILGLPQPQQAALAGALPPCPTWKAVRVDLVVTPSSQFPFALLGWTGSQFFERELRRFSRQEKGLWLNSHGLFDPEQKRVFHATSEEDVFRLLGLKYLPPEQRNA”, the “soluble on expression in E. coli” value is reported as “soluble”.
With “SNAMKDVLAEYASRIVSAEEAVKHIKNGERVALSHAAGVPQSCVDALVQQADLFQNVEIYHMLCLGEGKYMAPEMAPHFRHITNFVGGNSRKAVEENRADFIPVFFYEVPSMIRKDILHIDVAIVQLSMPDENGYCSFGVSCDYSKPAAESAHLVIGEINRQMPYVHGDNLIHISKLDYIVMADYPIYSLAKPKIGEVEEAIGRNCAELIEDGATLQLGIGAIPDAALLFLKDKKDLGIHTEMFSDGVVELVRSGVITGKKKTLHPGKMVATFLMGSEDVYHFIDKNPDVELYPVDYVNDPRVIAQNDNMVSINSCIEIDLMGQVVSECIGSKQFSGTGGQVDYVRGAAWSKNGKSIMAIPSTAKNGTASRIVPIIAEGAAVTTLRNEVDYVVTEYGIAQLKGKSLRQRAEALIAIAHPDFREELTKHLRKRFG” the “soluble on expression in E. coli” value was “soluble”.
In the case of “SNAMLHYVHVGNKKSPNTLLFVHGSGCNLKIFGELEKYLEDYNCILLDLKGHGESKGQCPSTVYGYIDNVANFITNSEVTKHQKNITLIGYSMGGAIVLGVALKKLPNVRKVVSLSGGARFDKLDKDFMEKIYHNQLDNNYLLECIGGIDNPLSEKYFETLEKDPDIMINDLIACKLIDLVDNLKNIDIPVKAIVAKDELLTLVEYSEIIKKEVENSELKIFETGKHFLLVVNAKGVAEEIKNFI”, the “soluble on expression in E. coli” value is reported as “soluble”.
With “SNAMQVITSVKEAKQIVKDWKSHQLSIGYVPTMGFLHDGHLSLVKHAKTQDKVIVSIFVNPMQFGPNEDFSSYPRDLERDIKMCQDNGVDMVFIPDATQMYLKNFSTYVDMNTITDKLCGAKRPGHFRGVCTVLTKFFNILNPDIVYMGQKDAQQCVVVRHMVDDLNFDLKIQICPIIREEDGLAKSSRNVYLSKEERKASLAISQSIFLAEKLVREGEKNTSKIIQAMKDILEKEKLIKIDYIELVDFNTMENIENITDNVLGAVAAFVGKTRLIDNFLVQGLK” the “soluble on expression in E. coli” value was “soluble”.
For “SNAMSDSDAMTDPNAVSYSNAIVVLCTAPDEASAQNLAAQVLGEKLAACVTLLPGATSLYYWEGKLEQEYEVQLLFKSNTDHQQALLTYIKQHHPYQTPELLVLPVRDGDKDYLSWLNASLL”, the “soluble on expression in E. coli” value was “soluble”.
For “SNAMSELSYRRILLKLSGEALMGDGDYGIDPKVINRLAHEVIEAQQAGAQVALVIGGGNIFRGAGLAASGMDRVTGDHMGMLATVINALAMQDALEKLGAKVRVMSAIKINDVCEDFIRRRAIRHLEKGRIAIFAAGTGNPFFTTDSGAALRAIEIGADLLLKATKVDGVYDKDPKKHSDAVRYDSLTYDEVIMQGLEVMDTAAFALARDSDLPLRIFGMSEPGVLLRILHGAQIGTLVQGRS”, the “soluble on expression in E. coli” value was “soluble”.
In the case of “SNGRADFREPNAQVSRPIPDIGGGYIPTEEEWRLFAECHEECFWFRSVPLAATSMLITQGLISKGILSSHPKYGSIPKLIFACIVGYFAGKLSYVKTCQEKFKKLENSPLGEALRSGELRRSLPPGHYTQKPKYDSNVSGQSSFGTSPAADNIEKETLPRYEPIPFSASMNESTPTGITDHIAQGPDPNLEDSPKRKSVTYEELRNKNRESYGVTLSHKTDPSVRPMQERGPQKEVKVNKYGDTWDE”, the “soluble on expression in E. coli” value is reported as “soluble”.
In the case of “SNRKKLQKLTDTLTKNCKHFNKFEVNCLIKLFYDLVGGVERQGLVVGLDRNAFRNILHVTFGMTDDMIMDRVFRGFDKDNDGCVNVLEWIHGLSLFLRGSLEEKMKYCFEVFDLNGDGFISKEEMFHMLKNSLLKQPSEEDPDEGIKDLVEITLKKMDHDHDGKLSFADYELAVREETLLLEAFGPCLPDPKSQMEFEAQVFKDPNEFNDM”, the “soluble on expression in E. coli” value is reported as “soluble”.
For “SPEIMKDLSINFGKALDTCKKELDLPDSINEDFYKFWKEDYEITNRLTGCAIKCLSEKLEMVDADGKLHHGNAREFAMKHGADDAMAKQLVDLIHGCEKSIPPNDDRCMEVLSIAMCFKKEIHNLKWAPNMEVVVGEVLAEV”, the “soluble on expression in E. coli” value was “soluble”.
With “SPNATPRRPLQELRRAELVEIIVETEAQTGVSGINVAGGGKEGIFVRELREDSPAARSLSLQEGDQLLSARVFFENFKYEDALRLLQCAEPYKVSFCLKRTVPTGDLALRPGTVSGYEIKGPRAKVAKLNIQSLSPVKKKKMVPGALGVPADLAPVDVEFSFPKFSRLRRGLKAEAVKGPVPAAPARRRLQLPRLRVREVAEEAQAARLAAAAPPPRKAKVEAEVAAGARFTAPQVELVGPRLPGAEVGVPQVSAPKAAPSAEAAGGFALHLPTLGLGAPAPPAVEAPAVGIQVPQVELPALPSLPTLPTLPCLETREGAVSVVVPTLDVAAPTVGVDLALPGAEVEARGEAPEVALKMPRLSFPRFGARAKEVAEAKVAKVSPEARVKGPRLRMPTFGLSLLEPRPAAPEVVESKLKLPTIKMPSLGIGVSGPEVKVPKGPEVKLPKAPEVKLPKVPEAALPEVRLPEVELPKVSEMKLPKVPEMAVPEVRLPEVELPKVSEMKLPKVPEMAVPEVRLPEVQLLKVSEMKLPKVPEMAVPEVRLPEVQLPKVSEMKLPEVSEVAVPEVRLPEVQLPKVPEMKVPEMKLPKVPEMKLPEMKLPEVQLPKVPEMAVPDVHLPEVQLPKVPEMKLPEMKLPEVKLPKVPEMAVPDVHLPEVQLPKVPEMKLPKMPEMAVPEVRLPEVQLPKVSEMKLPKVPEMAVPDVHLPEVQLPKVCEMKVPDMKLPEIKLPKVPEMAVPDVHLPEVQLPKVSEIRLPEMQVPKVPDVHLPKAPEVKLPRAPEVQLKATKAEQAEGMEFGFKMPKMTMPKLGRAESPSRGKPGEAGAEVSGKLVTLPCLQPEVDGEAHVGVPSLTLPSVELDLPGALGLQGQVPAAKMGKGERAEGPEVAAGVREVGFRVPSVEIVTPQLPAVEIEEGRLEMIETKVKPSSKFSLPKFGLSGPKVAKAEAEGAGRATKLKVSKFAISLPKARVGAEAEAKGAGEAGLLPALDLSIPQLSLDAHLPSGKVEVAGADLKFKGPRFALPKFGVRGRDTEAAELVPGVAELEGKGWGWDGRVKMPKLKVSTAGQVVTEGHDAGLRMPPLGISLPQVELTGFGEAGTPGQQAQSTVPSAEGTAGYRVQVPQVTLSLPGAQVAGGELLVGEGVFKMPTVTVPQLELDVGLSREAQAGEAATGEGGLRLKLPTLGARARVGGEGAEEQPPGAERTFCLSLPDVELSPSGGNHAEYQVAEGEGEAGHKLKVRLPRFGLVRAKEGAEEGEKAKSPKLRLPRVGFSQSEMVTGEGSPSPEEEEEEEEEGSGEGASGRRGRVRVRLPRVGLAAPSKASRGQEGDAAPKSPVREKSPKFRFPRVSLSPKARSGSGDQEEGGLRVRLPSVGFSETGAPGPARMEGAQAAAV” the “soluble on expression in E. coli” value was “soluble”.
With “SPPENRGEHETGRTLHIATYNIHKGLSFFNQRLILHELRDQLHGLDVDVVFLQEVVGEHALHATRFRDWPRNTQYEFLADSMWPDFAYGKNAVYGHGHHGNAILSRFSIVNWENEDISAHRFESRGLLHCELAIPGWKDTLHCICVHLGLFRRGRSQQLEAIEKRIRQLVSPDAPLVVAGDFNDWRGAANPLLASRLNLVEVFQHTHGKAARSFPSVLPLLRLDRIYIRGFQVKNAQILHNRPWSRISDHAVLSANIMRT” the “soluble on expression in E. coli” value was “not soluble”.
With “SQHFGRPRTTHEFLFGALAELVDNARDADATRIDIYAERREDLRGGFMLCFLDDGAGMDPSDAASVIQFGKSAKRTPESTQIGQYGNGLKSGSMRIGKDFILFTKKEDTMTCLFLSRTFHEEEGIDEVIVPLPTWNARTREPVTDNVEKFAIETELIYKYSPFRTEEEVMTQFMKIPGDSGTLVIIFNLKLMDNGEPELDIISNPRDIQMAETSPEGTKPERRSFRAYAAVLYIDPRMRIFIHGHKVQTKRLSCCLYKPRMYKYTSSRFKTRAEQEVKKAEHVARIAEEKAREAESKARTLEVRLGGDLTRDSRVMLRQVQNRAITLRREADVKKRIKEAKQRALKEPKELNFVFGVNIEHRDLDGMFIYNCSRLIKMYEKVGPQLEGGMACGGVVGVVDVPYLVLEPTHNKQDFADAKEYRHLLRAMGEHLAQYWKDIAIAQRGIIKFWDEFGYLSANWNQPPSSELRYKRRRAMEIPTTIQCDLCLKWRTLPFQLSSVEKDYPDTWVCSMNPDPEQDRCEASEQKQKVPLGTFRKDMKTQEEKQKQLTEKIRQQQEKLEALQKTTPIRSQADLKKLPLEVTTRPSTEEPVRRPQRPRSPPLPAVIRNAPSRPPSLPTPRPASQPRKAPVISSTPKLPALAAREEASTSRLLQPPEAPRKPANTLVKTASRPAPLVQQLSPSLLPNSKSPREVPSPKVIKTPVVKKTESPIKLSPATPSRKRSVAVSDEEEVEEEAERRKERCKRGRFVVKEEKKDSNELSDSAGEEDSADLKRAQKDKGLHVEVRVNREWYTGRVTAVEVGKHVVRWKVKFDYVPTDTTPRDRWVEKGSEDVRLMKPPSPEHQSLDTQQEGGEEEVGPVAQQAIAVAEPSTSECLRIEPDTTALSTNHETIDLLVQILRNCLRYFLPPSFPISKKQLSAMNSDELISFPLKEYFKQYEVGLQNLCNSYQSRADSRAKASEESLRTSERKLRETEEKLQKLRTNIVALLQKVQEDIDINTDDELDAYIEDLITKGD” the “soluble on expression in E. coli” value was “soluble”.
In the case of “SQLNPTVMISGSSANNHRFDNLVAILNRQSTTHSLLRVQVNEDNSISYSGRIRPNDSQPYIVIGFQNNSDGYANIKRQAKWLEIAMKFLQKRYHFNHFNAFGHSNGGLDWTIYLEKYFNQKSSTIGTLMTVGSPFNFSEKSESNRTQMLTDLIKNRSKLPRDMTVYSIAGTETYNDDGIVPIESVLSGKYVFQKNVHSYTQITVSGNDSEHSDLPTNPQIVQLIQRDILDGRGQKQSSNPVFNNH”, the “soluble on expression in E. coli” value is reported as “not soluble”.
With “SQQALRILEVRSAYCKNDFEWDNMKRLAFKNVDDSNTRLMREYVLETSHVETDSDK” the “soluble on expression in E. coli” value was “soluble”.
In the case of “SRAYDLVVIGAGSGGLEAGWNAASLHKKRVAVIDLQKHHGPPHYAALGGTCVNVGCVPKKLMVTGANYMDTIRESAGFGWELDRESVRPNWKALIAAKNKAVSGINDSYEGMFADTEGLTFHQGFGALQDNHTVLVRESADPNSAVLETLDTEYILLATGSWPQHLGIEGDDLCITSNEAFYLDEAPKRALCVGGGYISIEFAGIFNAYKARGGQVDLAYRGDMILRGFDSELRKQLTEQLRANGINVRTHENPAKVTKNADGTRHVVFESGAEADYDVVMLAIGRVPRSQTLQLEKAGVEVAKNGAIKVDAYSKTNVDNIYAIGDVTDRVMLTPVAINEGAAFVDTVFANKPRATDHTKVACAVFSIPPMGVCGYVEEDAAKKYDQVAVYESSFTPLMHNISGSTYKKFMVRIVTNHADGEVLGVHMLGDSSPEIIQSVAICLKMGAKISDFYNTIGVHPTSAEELCSMRTPAYFYEKGKRVEKIDSNL”, the “soluble on expression in E. coli” value is reported as “soluble”.
